According to the supplement of paper PMC9732359:
± gives the uncertainty stated by the source.

Assay: protein stability index of a GFP-peptide fusion (yeast GPS) (PSI 1-4); higher = more stable; sorted into four equal gates, so the index is relative within each strain
Summary of the method: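 Sequencing reads from sorted gates were used to score each peptide. The library consisted of tiled 17-residue yeast protein peptides fused downstream of GFP on a Cherry-expressing plasmid, pooled and carried in yeast. Mid-log cultures in leucine-free medium were split into four equal gates by GFP/Cherry ratio, and each gate's plasmids were PCR-amplified and Illumina-sequenced. The protein stability index adds up, over all gates, the read frequency multiplied by the gate number.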

Sequence	protein stability index (doa10∆)	protein stability index (pdr5∆)	protein stability index (san1∆)	protein stability index (ubr1∆)
SGQKAGLIAARRTGLLR [RPL2A]	3.07 ± 0.19	3.43 ± 0.11	3.15 ± 0.067	2.72 ± 0.16
ILDPQVTRFTTWNGSPF [YJL039C/NUP192]	1.26 ± 0.09	2.03 ± 0.12	1.51 ± 0.17	2.56 ± 0.12
IINSTALMKEKDIRSTL [RPC82]	3.12 ± 0.19	3 ± 0.099	2.97 ± 0.093	3.25 ± 0.09
AASALDEKEKQLAVANE [SIR4]	2.92 ± 0.081	3.28 ± 0.072	3.3 ± 0.055	3.36 ± 0.073
RLRQGAAKLRTLDYAER [RPL2A]	1.61 ± 0.071	1.51 ± 0.049	1.56 ± 0.12	1.56 ± 0.048
LHYLKKFKHIDDKYGRK [SRP72]	2.91 ± 0.061	2.88 ± 0.057	3.07 ± 0.055	2.85 ± 0.041
PQQNKTPFSFGTANNNS [YJL041W/NSP1]	3.28 ± 0.046	3.2 ± 0.038	3.12 ± 0.035	3.05 ± 0.034
KLPLSVINVSAQRDRRY [RPS17A]	1.8 ± 0.064	1.77 ± 0.058	1.43 ± 0.23	1.66 ± 0.15
LDFIGRRGTALGIKKEK [RPB2]	1.68 ± 0.075	2.03 ± 0.097	2.27 ± 0.059	2.07 ± 0.08
TEFEFYLLEELESYLIV [SSN8]	2.63 ± 0.099	2.72 ± 0.087	3.21 ± 0.12	2.72 ± 0.064
NTFGSSSLFNNSTNSNT [YJL041W/NSP1]	2.42 ± 0.06	2.44 ± 0.053	3.12 ± 0.041	2.5 ± 0.05
KATLELLKLIEPYVAYG [RPL7A]	2.28 ± 0.078	3.24 ± 0.083	3.3 ± 0.034	2.79 ± 0.047
NGVIIAADNLGSYGSLL [PRE4]	3.05 ± 0.13	3.15 ± 0.13	2.92 ± 0.21	3.12 ± 0.2
VLITSYEMVIREKNALK [ISW2]	2.33 ± 0.043	2.53 ± 0.053	2.37 ± 0.045	2.78 ± 0.043
EHASLLVRDSKPSKPFN [MED8]	2.43 ± 0.057	2.67 ± 0.046	2.56 ± 0.05	2.55 ± 0.052
SMNVTLGVPRIKEIINA [RPO31]	2.71 ± 0.066	2.56 ± 0.048	2.13 ± 0.065	2.47 ± 0.046
VGQAGRPKKITGWITQS [RPN1]	1.99 ± 0.059	2.27 ± 0.075	2.21 ± 0.12	2 ± 0.044
ASFNDTFVHVTDLSGKE [RPS14A]	2.17 ± 0.097	1.36 ± 0.093	1.76 ± 0.22	1.15 ± 0.082
QNPENLLSEKILQYFEK [SIR3]	2.83 ± 0.079	2.81 ± 0.086	2.8 ± 0.054	3.2 ± 0.072
LDYVRTPAAATSPIDIR [SNF2]	2.33 ± 0.056	2.45 ± 0.063	2.14 ± 0.077	2.36 ± 0.045
KLNDSQRKTVNSDDILS [POP1]	2.3 ± 0.075	1.99 ± 0.1	2.38 ± 0.087	2.89 ± 0.093
ELHKEGTISKLENKENG [SMC2]	2.01 ± 0.12	2.61 ± 0.097	1.4 ± 0.076	1.62 ± 0.075
IIFASTKLGFTFTIKEF [SNU114]	2.37 ± 0.078	2.44 ± 0.059	1.83 ± 0.074	2.56 ± 0.066
NYASVYPVVEVERGRVG [RRP43]	3.48 ± 0.14	3.57 ± 0.11	3.43 ± 0.093	3.42 ± 0.056

Sequence	protein stability index (doa10∆)	protein stability index (pdr5∆)	protein stability index (san1∆)	protein stability index (ubr1∆)
GYDKKKNKPELYQIDYL [PRE1]	3.04 ± 0.086	2.91 ± 0.098	3.02 ± 0.066	3.08 ± 0.09
DNMITGVTKGYKYKMRY [RPL9A]	3.07 ± 0.096	3.3 ± 0.14	2.92 ± 0.27	3.1 ± 0.067
LRWFELKPKLYYEQFRP [SIR3]	3.21 ± 0.074	2.98 ± 0.067	2.71 ± 0.077	3 ± 0.047
FQETLDSTVVYPLPKFP [MED8]	3.05 ± 0.05	3.19 ± 0.044	2.95 ± 0.042	3.15 ± 0.044
EGIKVVDIDDPDMMVDS [SNF2]	3 ± 0.17	3.14 ± 0.19	3.12 ± 0.094	2.97 ± 0.091
TPLKARQREMAEEQTKL [YLR018C/POM34]	3.33 ± 0.08	3.36 ± 0.093	3.31 ± 0.053	3.41 ± 0.056
VTNDDKSDDDDHTVDEI [SRB8]	2.67 ± 0.077	2.8 ± 0.085	3.07 ± 0.094	3.01 ± 0.045
GKTLAFVIPILIKMSRS [PRP28]	1.38 ± 0.071	1.62 ± 0.079	1.22 ± 0.19	–
ESSSEDDYEDQDDDDYV [IRR1]	3.58 ± 0.16	3.52 ± 0.11	–	3.65 ± 0.16
LNDLVESSFIEIDDTEA [BRR2]	2.9 ± 0.037	2 ± 0.043	2.13 ± 0.069	2.25 ± 0.029
ERESSGAKDAEKSGISK [RPC17]	2.91 ± 0.18	3.4 ± 0.3	–	3.64 ± 0.16
VARIYASFNDTFVHVTD [RPS14A]	1.96 ± 0.06	1.73 ± 0.04	2.12 ± 0.07	2.2 ± 0.055
SFSFLNRADGTGEAQVD [YLR335W/NUP2]	–	3.39 ± 0.23	–	2.78 ± 0.29
IGTANYKPLIEERMGQI [SMC4]	3.1 ± 0.087	3.53 ± 0.087	3.37 ± 0.059	3.27 ± 0.063
ISDVKIQVAAFIYGMSA [PRP8]	–	2.17 ± 0.17	1.84 ± 0.12	1.94 ± 0.14
SVIVKFHSEPDRDENWI [LIN1]	2.69 ± 0.072	3.08 ± 0.071	2.96 ± 0.056	2.75 ± 0.044
KTDTKVSFRTHNSHLSL [SRP21]	3.03 ± 0.059	3.06 ± 0.053	2.92 ± 0.053	3.15 ± 0.048
FVSRPDRTMLAPMDFAI [FAS1]	2.68 ± 0.12	2.82 ± 0.11	2.63 ± 0.11	2.68 ± 0.11
LQRKDYTSIVQCCEFMT [YML103C/NUP188]	1.48 ± 0.059	1.62 ± 0.048	2.05 ± 0.079	1.9 ± 0.044
KLCYVLGVEDITLIDSA [RET1]	1.58 ± 0.12	1.73 ± 0.25	1.26 ± 0.27	1.74 ± 0.07
GTGKSQSGSNSGNNSKK [ROX3]	3.37 ± 0.3	–	2.77 ± 0.2	–
PLPPRIDPSVTMMTVEE [RPT1]	2.16 ± 0.08	1.9 ± 0.076	2.12 ± 0.17	1.88 ± 0.062
GQLEDFDSELIHLKQKL [SMC3]	–	2.89 ± 0.16	3.23 ± 0.15	2.95 ± 0.17
KPVMEVTSSFFYRGNYT [FAS1]	2.21 ± 0.065	2.11 ± 0.065	1.91 ± 0.12	2.1 ± 0.081
